Variants at the floor of the assay were thinned out.
B1: TPR 5TU (parent)
chain: GGAUCUUCUCGAUCUAACAAAAAAGACAAAUCUGCCACAAAGCUUGAGAGCAUCUUCGGAUGCAGAGGCGGCAGCCUUCGGUGGCGCGAUAGCGCCAACGUUCUCAACUAUGACACGCAAAACGCGUGCUCCGUUGAAUGGAGUUUAUCAUG

Variants of: B1
Test: polymerase ribozyme fitness, log enrichment relative to wild type (log ratio); higher = more active; in vitro selection for triplet polymerase activity
Summary of the method: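 Libraries of mutants in each subunit of a heterodimeric triplet polymerase ribozyme were generated by PCR and transcribed. In triplicate, each went through one in vitro selection round: annealing with biotinylated primer, partner subunit and triplets; frozen incubation at −7 °C; gel excision of extended constructs; streptavidin-bead capture; RT-PCR. Fitness, taken from Illumina sequencing of input and output libraries, is the logarithm of a genotype's enrichment over wild-type enrichment, averaged across replicates with inverse-variance weights. The logarithm is base 2, and genotypes needed ≥10 input reads and ≥1 read per output to be kept.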

| Variant | polymerase ribozyme fitness (log ratio) |
| --- | --- |
| U53A A91C C96U | ≤ -4.2 |
| C51U G67A G83U G94A A98C C99G U109C A120U U145G | ≤ -4.2 |
| U53A A64G C103G G124A | ≤ -4.2 |
| U53A A73U C85U G124U U134C U135C | ≤ -4.2 |
| A52C G59U | -0.875 |
| A52C U56A C75U A89U U90G C95G C123G C125A | ≤ -4.2 |
| A52U G59A U82G U145A U146C | -0.208 |
| C51U G94A C96U G126C | -1.72 |
| C51G G94A | -1.79 |
| A52C G94C | -2.26 |
| C51U C57A G84A U109G C123A | -1.74 |
| U53A C87A A107C C108A U111G U146C U148A | ≤ -4.2 |
| A52G G58U G84U C96A C99U | -4.02 |
| U53A C69U | -4.11 |
| A52U U53A G58U | -0.762 |
| A52U C54U U55A C57G A73G G83C | ≤ -4.2 |
| G50U U144A | -0.478 |
| U53A A73G U78C G133A | ≤ -4.2 |
| A52G A66C G67C G141C | ≤ -4.2 |
| U53A C54A G59U A64U C93G A137C | ≤ -4.2 |
| A52C A73U C85A C103A | ≤ -4.2 |
| A52U U82G | -1.46 |
| C51G A73G G94U C95U C118A A142U G152A | ≤ -4.2 |
| U53A G83U A115C G124A | -2.73 |

| Variant | polymerase ribozyme fitness (log ratio) |
| --- | --- |
| C51A G92U U109C | ≤ -4.2 |
| C51A G58C U111A | ≤ -4.2 |
| A52G U82G | 0.0484 |
| U53A C85A G124A | -2.89 |
| C51A | -0.687 |
| C51U | -0.394 |
| C51G | -1.58 |
| U53A C85G | -3.15 |
| U53A C85A | -4 |
| A52G G83C C129A | -2.88 |
| A52G C85A | -2.19 |
| A52G G83C | -2.18 |
| A52C A66G G71U C125U | ≤ -4.2 |
| A52G C96G | -2.13 |
| A52C G92U | -1.12 |
| G50U C132U | -0.763 |
| U53A C149G | -3.71 |
| A52G G84U C96U U139C U144C | ≤ -4.2 |
| U53A G65A | -1.33 |
| C51A C57G | -2.19 |
| U53A G83C C105G | ≤ -4.2 |
| U53A C76A C87U A107C | ≤ -4.2 |
| A52G U56A A64C G92U | ≤ -4.2 |
| C51A C76A G86A | ≤ -4.2 |

| Variant | polymerase ribozyme fitness (log ratio) |
| --- | --- |
| G50U G58U | 0.771 |
| U53A C57U | -1.2 |
| U53A C57A | -0.577 |
| A52U G58U C95U | -1.52 |
| A52G U82A C96G | 0.187 |
| G50U G80A A91G C99G | ≤ -4.2 |
| C51U U56G C75U U134C | -2.81 |
| A52G G58A C72A G83U C96U | ≤ -4.2 |
| C51U G80A G81A A150U | -1.5 |
| A52G G67A G126U | ≤ -4.2 |
| A52C A138G | -3.62 |
| C51G C72A C79A G94A | ≤ -4.2 |
| C51U C93G | -3.69 |
| G50U C76A G126U U148G | ≤ -4.2 |
| G50U G84C C85G A106G C116U G152A | ≤ -4.2 |
| C51A A98U C125G | -0.926 |
| A52U C87U | -2.81 |
| A52C G70C C85U C125U | ≤ -4.2 |
| A52G G143C | -3.77 |
| U53A C76U A142G | -2.87 |
| U53A C54U C57A G62A C85A G126U | ≤ -4.2 |
| A52G C85U U104G | -0.901 |
| A52U C63U C85U C116G | -0.741 |
| A52G C96G C131U | -0.425 |

| Variant | polymerase ribozyme fitness (log ratio) |
| --- | --- |
| C51U C96A A121C U134A | -3.19 |
| U53A C118U | -1.08 |
| C51A G65A G81U C96G A106U G136U | ≤ -4.2 |
| C51G G81C C85G C123U G143A | -3.82 |
| C51A U55G | -2.17 |
| C51G A66U G67A C118U | ≤ -4.2 |
| A52U G84A G117C | -0.726 |
| C51A A64G C87A G128U G140C | ≤ -4.2 |
| C51A C99U | -1.63 |
| A52G C93U U101C C105U | -2.43 |
| A52G C93A G140A | ≤ -4.2 |
| A52G U55C C105G U109A | -1.97 |
| U53A C93U | -2.51 |
| C51U G92U C93U C95U | -2.56 |
| C51U C85A G143C | -2.7 |
| C51U A110G | -3.47 |
| C51U U56A G65U G81C G136C A138G G141C A142G | ≤ -4.2 |
| U53A G92C A137G | -3.41 |
| C51A G84C | -2.99 |
| C51A G84A | -1.26 |
| A52U C85U | -1.59 |
| G50U A122G U135A | -0.743 |
| C51U U55A C96A | -1.8 |
| A52C U102A | -1.68 |

| Variant | polymerase ribozyme fitness (log ratio) |
| --- | --- |
| A52C U78A C96A U144G | ≤ -4.2 |
| A52C C75U G88C C96U C105G G136U | ≤ -4.2 |
| C51G G71A A122G | ≤ -4.2 |
| C51A U82G A115U | -3.17 |
| C51U U55G A98U A115G | -3.09 |
| U53A G68U A73G U134G A138C | ≤ -4.2 |
| G50U U130A | -2.51 |
| C51U C57A C63U G65C | ≤ -4.2 |
| A52C U55A C131G | ≤ -4.2 |
| C51U G86U U145G | -2.27 |
| C51G G81U C96U | -1.16 |
| A52G U53A C85A U111G | ≤ -4.2 |
| A52G C54U | 0.381 |
| G50U C85G | -3.51 |
| C51U A98U | -0.337 |
| G50U G83A U146C A147C | -2.91 |
| U53A C54G C95A | -1.73 |
| C51U A60G A66C U82C G94A U109A G136A A138C | ≤ -4.2 |
| A52C C87U A91U C116U G128U | ≤ -4.2 |
| A52C G83A | -2.46 |
| A52U G86C A91C U139C | ≤ -4.2 |
| A52C C63U C93A A107U C125U U146A | ≤ -4.2 |
| G50U G140U | -3.88 |
| A52G G74A C87U C131U A142G | -3.99 |

| Variant | polymerase ribozyme fitness (log ratio) |
| --- | --- |
| A52G G84U C118G G128A U144G U145A | ≤ -4.2 |
| A52C U102G A147U | -3.59 |
| A52U U53A C96U A119C | -2.05 |
| C51U C75U C87U U104C A115G A121U A142C | -4.13 |
| G50U A97G | -0.0233 |
| A52C C87A | ≤ -4.2 |
| C51G U53C U77C C95A | ≤ -4.2 |
| U53A G70A | -3.81 |
| U53A G70C | ≤ -4.2 |
| A52G C85A A89G | -3.57 |
| G50U C57U A110G G140A | ≤ -4.2 |
| A52G G92A A113U | -3.81 |
| A52C A107C A122C A138G | ≤ -4.2 |
| C51U U104G | -1.04 |
| C51U A89U G92C C129U | -2.18 |
| C51A A60G G124U | -1.75 |
| C51U C57G G58C C69A A98U C105G C116U A150U | ≤ -4.2 |
| A52G C75U | -0.679 |
| A52C U55A A60C C76U G83A C85U C129G A150G | ≤ -4.2 |
| G50U A107U | -3.73 |
| U53A C96U C114G | -4.15 |
| U53A G58A C76U C103G A150U | ≤ -4.2 |
| A52U A89C | -3.05 |
| U53A C105A | -2.83 |

| Variant | polymerase ribozyme fitness (log ratio) |
| --- | --- |
| U53A G58C G59U A91G C108A G124U G126U | ≤ -4.2 |
| G50U C95U | -0.241 |
| A52G G84A C99U A120G | -1.11 |
| A52G C63G | -0.179 |
| A52G G65A G68U G92U C103U A119U U139C | ≤ -4.2 |
| A52C C87A C93U A98U G128U U148G | ≤ -4.2 |
| A52U G71C G92A C96G | ≤ -4.2 |
| C51U G58U A91U C96U G100C A138C | ≤ -4.2 |
| C51A U55A G94A C125A | -3.04 |
| A52G G83A C118U A150G | -2.35 |
| A52C U55A | -1.69 |
| U53A C75U C103U | -3.14 |
| U53A G86U | -2.14 |
| U53A G86C | -3.25 |
| A52U U148C | ≤ -4.2 |
| A52G C85U G92A C96A | ≤ -4.2 |
| G50U U78C | -2.27 |
| C51U A52C | -1.33 |
| A52U U82C G92U C116G A121U | -3.06 |
| C51U G67C U135C | ≤ -4.2 |
| U53A U55G A64U C75U A91C C116U U144A | ≤ -4.2 |
| C51U A60G G86A | -1.75 |
| A52G U53G U77G C131G | ≤ -4.2 |
